Data from article PMC314469, “Protein Interaction Networks by Proteome Peptide Scanning” (PLoS Biology, 2004).

T1: Boi1 SH3 (BOI1_YEAST), P38041
T1 chain: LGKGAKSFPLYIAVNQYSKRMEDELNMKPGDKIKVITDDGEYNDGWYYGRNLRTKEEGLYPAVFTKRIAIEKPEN

T2: Yfr024 SH3 (LSB3_YEAST), P43603
T2 chain: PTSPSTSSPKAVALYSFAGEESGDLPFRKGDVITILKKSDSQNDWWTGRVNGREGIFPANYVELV

T3: Boi2 SH3 (BOI2_YEAST), P39969
T3 chain: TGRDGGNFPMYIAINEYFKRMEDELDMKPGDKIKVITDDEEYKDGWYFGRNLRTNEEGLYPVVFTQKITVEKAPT

T4: Rvs167 SH3 (RV167_YEAST), P39743
T4 chain: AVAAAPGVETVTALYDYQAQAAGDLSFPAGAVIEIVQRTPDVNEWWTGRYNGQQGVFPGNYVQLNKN

T5: Yhr016c SH3 (YSC84_YEAST), P32793
T5 chain: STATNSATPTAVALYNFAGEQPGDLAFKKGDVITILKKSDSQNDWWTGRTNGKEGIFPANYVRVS


Tests used:
Experiment in all cases: SPOT array
[1] = biological target: T1, Boi1 SH3 (BOI1_YEAST), P38041
[2] = biological target: T2, Yfr024 SH3 (LSB3_YEAST), P43603
[3] = biological target: T3, Boi2 SH3 (BOI2_YEAST), P39969
[4] = biological target: T4, Rvs167 SH3 (RV167_YEAST), P39743
[5] = biological target: T5, Yhr016c SH3 (YSC84_YEAST), P32793

Binder	normalised SPOT signal, Boehringer light units (BLU); mean over the file's lines of this peptide [1]	normalised SPOT signal, Boehringer light units (BLU); mean over the file's lines of this peptide [2]	normalised SPOT signal, Boehringer light units (BLU); mean over the file's lines of this peptide [3]	normalised SPOT signal, Boehringer light units (BLU); mean over the file's lines of this peptide [4]	normalised SPOT signal, Boehringer light units (BLU); mean over the file's lines of this peptide [5]
TSAPDIPPRSPNRN [YDR239C 54-67]	65600	14500	35900	26700	14800
TTRPAPPSKAKDVA [YAL011W 347-360]	61.3	767	72	125	251
TSTPPLPRRRATTS [YGL181W 247-260]	16400	36200	1870	55700	122000
TLRPGIPLKPMLAK [YDL164C 384-397]	105	303	49.9	118	229
TNYPVNPEKHEMDK [YBR140C 1667-1680]	82.1	0	32.3	62.1	136
TTAPRGPKKAQPAQ [YGR097W 176-189]	138	169	43.9	89.5	264
TNPPIDPIREANVM [YDL171C 572-585]	136	14.7	55.4	27.6	110
TPAPNLPEKTRLAL [YBR208C 872-885]	82.2	6030	38.3	65.7	221
TRRPHHPLKQQSTN [YIL152W 34-47]	87.5	411	26.4	70.4	154
TPPPVEPLKTKDLA [YBR284W 102-115]	94.4	36.2	43.4	56.7	146

Second part, the binder after the results:

normalised SPOT signal, Boehringer light units (BLU); mean over the file's lines of this peptide [1]	normalised SPOT signal, Boehringer light units (BLU); mean over the file's lines of this peptide [2]	normalised SPOT signal, Boehringer light units (BLU); mean over the file's lines of this peptide [3]	normalised SPOT signal, Boehringer light units (BLU); mean over the file's lines of this peptide [4]	normalised SPOT signal, Boehringer light units (BLU); mean over the file's lines of this peptide [5]	Binder
703	40300	117	1730	42100	VSPPSFPSRRSETS [YPL006W 878-891]
71.1	9080	77.1	86.9	4950	VAKPKKPARPTMST [YNL298W 513-526]
252	11600	19.2	63.1	319	TSKPSLPEKPQKLR [YPR171W 333-346]
1470	32400	73.2	32500	27300	VAPPPLPNRQLPNL [YNL094W 505-518]
31.7	1200	4.1	38	624	TQAPLAPSRNQENE [YPR055W 308-321]
34.6	1890	49	218	566	TRRPTNPFRVISVS [YNL166C 314-327]
181	315	50.4	28.9	100	TPLPFAPNKSSKKT [YIR023W 846-859]
82.6	295	53.3	74.3	352	TLQPGLPHKPLPSD [YKL148C 467-480]
37.2	25300	30.4	16700	47000	TSSPPLPPRQNVAT [YPL249C 279-292]
91.4	3.9	62.6	16.3	86.1	TLQPGLPHKPLASN [YJL045W 461-474]
81.6	1540	22.9	18.4	114	TTVPTKPKKPHDIS [YKR084C 145-158]
111	4980	0	46.4	1280	TNEPTKPIRRLSTP [YMR042W 23-36]
